Data published in US20240124553A1.

What was measured:
Assay in all cases: flow cytometry, transfected 293T cells
[1] = target: CHIKV E2-E1 envelope glycoproteins (strain S27), E2 mutant I121A (chikungunya virus strain S27) (UniProt Q8JUX5)
[2] = target: CHIKV E2-E1 envelope glycoproteins (strain S27), E2 mutant F100A (chikungunya virus strain S27) (UniProt Q8JUX5)
[3] = target: CHIKV E2-E1 envelope glycoproteins (strain S27), E2 mutant D43A (chikungunya virus strain S27) (UniProt Q8JUX5)
[4] = target: CHIKV E2-E1 envelope glycoproteins (strain S27), E2 mutant P90A (chikungunya virus strain S27) (UniProt Q8JUX5)
[5] = target: CHIKV E2-E1 envelope glycoproteins (strain S27), E2 mutant L52A (chikungunya virus strain S27) (UniProt Q8JUX5)
[6] = target: CHIKV E2-E1 envelope glycoproteins (strain S27), E2 mutant D59A (chikungunya virus strain S27) (UniProt Q8JUX5)
[7] = target: CHIKV E2-E1 envelope glycoproteins (strain S27), E2 mutant L102A (chikungunya virus strain S27) (UniProt Q8JUX5)
[8] = target: CHIKV E2-E1 envelope glycoproteins (strain S27), E2 mutant T65A (chikungunya virus strain S27) (UniProt Q8JUX5)
[9] = target: CHIKV E2-E1 envelope glycoproteins (strain S27), E2 mutant C105A (chikungunya virus strain S27) (UniProt Q8JUX5)
[10] = target: CHIKV E2-E1 envelope glycoproteins (strain S27), E2 mutant T110A (chikungunya virus strain S27) (UniProt Q8JUX5)
[11] = target: CHIKV E2-E1 envelope glycoproteins (strain S27), E2 mutant T126A (chikungunya virus strain S27) (UniProt Q8JUX5)
[12] = target: CHIKV E2-E1 envelope glycoproteins (strain S27), E2 mutant G95A (chikungunya virus strain S27) (UniProt Q8JUX5)
[13] = target: CHIKV E2-E1 envelope glycoproteins (strain S27), E2 mutant L111A (chikungunya virus strain S27) (UniProt Q8JUX5)
[14] = target: CHIKV E2-E1 envelope glycoproteins (strain S27), E2 mutant H123A (chikungunya virus strain S27) (UniProt Q8JUX5)
[15] = target: CHIKV E2-E1 envelope glycoproteins (strain S27), E2 mutant S118A (chikungunya virus strain S27) (UniProt Q8JUX5)
[16] = target: CHIKV E2-E1 envelope glycoproteins (strain S27), E2 mutant F115A (chikungunya virus strain S27) (UniProt Q8JUX5)
[17] = target: CHIKV E2-E1 envelope glycoproteins (strain S27), E2 mutant H99A (chikungunya virus strain S27) (UniProt Q8JUX5)
[18] = target: CHIKV E2-E1 envelope glycoproteins (strain S27), E2 mutant R80A (chikungunya virus strain S27) (UniProt Q8JUX5)
[19] = target: CHIKV E2-E1 envelope glycoproteins (strain S27), E2 mutant I54A (chikungunya virus strain S27) (UniProt Q8JUX5)
[20] = target: CHIKV E2-E1 envelope glycoproteins (strain S27), E2 mutant R38A (chikungunya virus strain S27) (UniProt Q8JUX5)
[21] = target: CHIKV E2-E1 envelope glycoproteins (strain S27), E2 mutant V50A (chikungunya virus strain S27) (UniProt Q8JUX5)
[22] = target: CHIKV E2-E1 envelope glycoproteins (strain S27), E2 mutant N39A (chikungunya virus strain S27) (UniProt Q8JUX5)
[23] = target: CHIKV E2-E1 envelope glycoproteins (strain S27), E2 mutant R68A (chikungunya virus strain S27) (UniProt Q8JUX5)
[24] = target: CHIKV E2-E1 envelope glycoproteins (strain S27), E2 mutant D117A (chikungunya virus strain S27) (UniProt Q8JUX5)
[25] = target: CHIKV E2-E1 envelope glycoproteins (strain S27), E2 mutant L34A (chikungunya virus strain S27) (UniProt Q8JUX5)
[26] = target: CHIKV E2-E1 envelope glycoproteins (strain S27), E2 mutant W64A (chikungunya virus strain S27) (UniProt Q8JUX5)
[27] = target: CHIKV E2-E1 envelope glycoproteins (strain S27), E2 mutant I37A (chikungunya virus strain S27) (UniProt Q8JUX5)
[28] = target: CHIKV E2-E1 envelope glycoproteins (strain S27), E2 mutant C125A (chikungunya virus strain S27) (UniProt Q8JUX5)
[29] = target: CHIKV E2-E1 envelope glycoproteins (strain S27), E2 mutant K120A (chikungunya virus strain S27) (UniProt Q8JUX5)
[30] = target: CHIKV E2-E1 envelope glycoproteins (strain S27), E2 mutant A89S (chikungunya virus strain S27) (UniProt Q8JUX5)
[31] = target: CHIKV E2-E1 envelope glycoproteins (strain S27), E2 mutant C91A (chikungunya virus strain S27) (UniProt Q8JUX5)
[32] = target: CHIKV E2-E1 envelope glycoproteins (strain S27), E2 mutant V85A (chikungunya virus strain S27) (UniProt Q8JUX5)
[33] = target: CHIKV E2-E1 envelope glycoproteins (strain S27), E2 mutant F84A (chikungunya virus strain S27) (UniProt Q8JUX5)

CHIKV mAb C9 (antibody)
Binding Reactivity (% WT) [1]: 96.7 % WT | Binding Reactivity (% WT) [2]: 34.2 % WT | Binding Reactivity (% WT) [3]: 11.1 % WT | Binding Reactivity (% WT) [4]: 100 % WT | Binding Reactivity (% WT) [5]: 84.7 % WT | Binding Reactivity (% WT) [6]: 71.8 % WT | Binding Reactivity (% WT) [7]: 31.2 % WT | Binding Reactivity (% WT) [8]: 71.1 % WT | Binding Reactivity (% WT) [9]: -0.2 % WT | Binding Reactivity (% WT) [10]: 88 % WT | Binding Reactivity (% WT) [11]: 106 % WT | Binding Reactivity (% WT) [12]: 86.2 % WT | Binding Reactivity (% WT) [13]: 23.2 % WT | Binding Reactivity (% WT) [14]: 53.6 % WT | Binding Reactivity (% WT) [15]: 97.4 % WT | Binding Reactivity (% WT) [16]: 4.3 % WT | Binding Reactivity (% WT) [17]: 57.4 % WT | Binding Reactivity (% WT) [18]: 68.8 % WT | Binding Reactivity (% WT) [19]: 110 % WT | Binding Reactivity (% WT) [20]: 86.3 % WT | Binding Reactivity (% WT) [21]: 76.7 % WT | Binding Reactivity (% WT) [22]: 108 % WT | Binding Reactivity (% WT) [23]: 64.8 % WT | Binding Reactivity (% WT) [24]: 74.4 % WT | Binding Reactivity (% WT) [25]: 34.4 % WT | Binding Reactivity (% WT) [26]: 60.6 % WT | Binding Reactivity (% WT) [27]: 30.4 % WT | Binding Reactivity (% WT) [28]: 0 % WT | Binding Reactivity (% WT) [29]: 15.4 % WT | Binding Reactivity (% WT) [30]: 109 % WT | Binding Reactivity (% WT) [31]: 0.6 % WT | Binding Reactivity (% WT) [32]: 77.8 % WT | Binding Reactivity (% WT) [33]: 76.2 % WT

CHIKV mAb CHKV-88 (antibody)
Binding Reactivity (% WT) [1]: 111 % WT | Binding Reactivity (% WT) [2]: 69.1 % WT | Binding Reactivity (% WT) [3]: 37.5 % WT | Binding Reactivity (% WT) [4]: 119 % WT | Binding Reactivity (% WT) [5]: 100 % WT | Binding Reactivity (% WT) [6]: 86.1 % WT | Binding Reactivity (% WT) [7]: 61.4 % WT | Binding Reactivity (% WT) [8]: 87.9 % WT | Binding Reactivity (% WT) [9]: -0.1 % WT | Binding Reactivity (% WT) [10]: 107 % WT | Binding Reactivity (% WT) [11]: 95.1 % WT | Binding Reactivity (% WT) [12]: 89 % WT | Binding Reactivity (% WT) [13]: 50.9 % WT | Binding Reactivity (% WT) [14]: 61.5 % WT | Binding Reactivity (% WT) [15]: 117 % WT | Binding Reactivity (% WT) [16]: 25.1 % WT | Binding Reactivity (% WT) [17]: 85.6 % WT | Binding Reactivity (% WT) [18]: 128 % WT | Binding Reactivity (% WT) [19]: 116 % WT | Binding Reactivity (% WT) [20]: 99.6 % WT | Binding Reactivity (% WT) [21]: 78.6 % WT | Binding Reactivity (% WT) [22]: 124 % WT | Binding Reactivity (% WT) [23]: 74.7 % WT | Binding Reactivity (% WT) [24]: 103 % WT | Binding Reactivity (% WT) [25]: 58.3 % WT | Binding Reactivity (% WT) [26]: 126 % WT | Binding Reactivity (% WT) [27]: 63.2 % WT | Binding Reactivity (% WT) [28]: 3.7 % WT | Binding Reactivity (% WT) [29]: 82.3 % WT | Binding Reactivity (% WT) [30]: 118 % WT | Binding Reactivity (% WT) [31]: 4 % WT | Binding Reactivity (% WT) [32]: 75.9 % WT | Binding Reactivity (% WT) [33]: 83.9 % WT
